Measurements as given in article PMC8852700, “Distinct Serotypes of Streptococcal M Proteins Mediate Fibrinogen-Dependent Platelet Activation and Proinflammatory Effects” (Infection and Immunity, 2021).

T1: M5 protein (Streptococcus pyogenes, UniProt P02977 43-461)
T1 sequence: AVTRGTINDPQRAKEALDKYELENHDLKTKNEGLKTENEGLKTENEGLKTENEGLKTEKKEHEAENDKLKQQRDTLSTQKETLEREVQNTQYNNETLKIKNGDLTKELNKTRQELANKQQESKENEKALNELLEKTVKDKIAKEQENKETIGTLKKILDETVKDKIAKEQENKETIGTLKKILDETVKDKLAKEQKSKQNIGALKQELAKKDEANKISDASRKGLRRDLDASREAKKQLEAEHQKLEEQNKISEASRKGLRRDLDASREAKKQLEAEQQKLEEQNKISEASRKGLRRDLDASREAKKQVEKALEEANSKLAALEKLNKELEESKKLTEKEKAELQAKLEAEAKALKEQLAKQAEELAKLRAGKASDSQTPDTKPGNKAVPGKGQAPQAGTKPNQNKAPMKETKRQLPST

T2: M1 protein (Streptococcus pyogenes, UniProt Q99XV0 1-484)
T2 sequence: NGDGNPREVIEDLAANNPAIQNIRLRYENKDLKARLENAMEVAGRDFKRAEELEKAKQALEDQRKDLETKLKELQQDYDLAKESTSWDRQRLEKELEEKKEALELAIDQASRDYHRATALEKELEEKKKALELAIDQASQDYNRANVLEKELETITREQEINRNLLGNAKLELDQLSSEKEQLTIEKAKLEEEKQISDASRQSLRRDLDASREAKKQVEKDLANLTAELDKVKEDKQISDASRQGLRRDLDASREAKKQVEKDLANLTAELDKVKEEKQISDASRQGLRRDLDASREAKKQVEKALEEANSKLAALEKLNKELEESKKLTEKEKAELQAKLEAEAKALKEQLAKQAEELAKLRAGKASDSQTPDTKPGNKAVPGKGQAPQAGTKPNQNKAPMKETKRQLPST


Experiments:
[1] = target: M3 protein (Streptococcus pyogenes) (UniProt Q54841)
[2] = target: M3 protein (Streptococcus pyogenes) (UniProt Q54841); remark: listed apart in the source
[3] = target: M3 protein (Streptococcus pyogenes) (UniProt Q54841); remark: listed apart in the source
M5 protein = target: T1, M5 protein; assay: cell-based or functional assay
M1 protein = target: T2, M1 protein; assay: cell-based or functional assay

Row | Molecule | monocyte activation: fold increase of CD11b median fluorescence intensity above background, flow cytometry of whole blood, 10 donors [1] [fold] | neutrophil activation: fold increase of CD11b median fluorescence intensity above background, flow cytometry of whole blood, 10 donors [1] [fold] | platelet activation: percentage of platelets positive for CD62P, flow cytometry of platelet-rich plasma, median of 10 donors (background 3%) [2] [%] | platelet-monocyte complex formation: percentage of monocytes positive for CD61, flow cytometry of whole blood, median of 10 donors (background 4%) [3] [%] | platelet-neutrophil complex formation: percentage of neutrophils positive for CD61, flow cytometry of whole blood, median of 10 donors (background 18%) [3] [%] | monocyte activation: fold increase of CD11b median fluorescence intensity above background, flow cytometry of whole blood, 10 donors (M5 protein) [fold] | neutrophil activation: fold increase of CD11b median fluorescence intensity above background, flow cytometry of whole blood, 10 donors (M5 protein) [fold] | monocyte activation: fold increase of CD11b median fluorescence intensity above background, flow cytometry of whole blood, 10 donors (M1 protein) [fold] | neutrophil activation: fold increase of CD11b median fluorescence intensity above background, flow cytometry of whole blood, 10 donors (M1 protein) [fold]
1 | human fibrinogen (from UniProt P02671 36-866; P02675 45-491; P02679 27-453) (natural protein) | 3 | 5 | 55 | 17 | 53 |  |  |  | 
2 | human fibrinogen (natural protein) chain 1: GPRVVERHQSACKDSDWPFCSDEDWNYKCPSGCRMKGLIDEVNQDFTNRINKLKNSLFEYQKNNKDSHSLTTNIMEILRGDFSSANNRDNTYNRVSEDLRSRIEVLKRKVIEKVQHIQLLQKNVRAQLVDMKRLEVDIDIKIRSCRGSCSRALAREVDLKDYEDQQKQLEQVIAKDLLPSRDRQHLPLIKMKPVPDLVPGNFKSQLQKVPPEWKALTDMPQMRMELERPGGNEITRGGSTSYGTGSETESPRNPSSAGSWNSGSSGPGSTGNRNPGSSGTGGTATWKPGSSGPGSTGSWNSGSSGTGSTGNQNPGSPRPGSTGTWNPGSSERGSAGHWTSESSVSGSTGQWHSESGSFRPDSPGSGNARPNNPDWGTFEEVSGNVSPGTRREYHTEKLVTSKGDKELRTGKEKVTSGSTTTTRRSCSKTVTKTVIGPDGHKEVTKEVVTSEDGSDCPEAMDLGTLSGIGTLDGFRHRHPDEAAFFDTASTGKTFPGFFSPMLGEFVSETESRGSESGIFTNTKESSSHHPGIAEFPSRGKSSSYSKQFTSSTSYNRGDSTFESKSYKMADEAGSEADHEGTHSTKRGHAKSRPVRDCDDVLQTHPSGTQSGIFNIKLPGSSKIFSVYCDQETSLGGWLLIQQRMDGSLNFNRTWQDYKRGFGSLNDEGEGEFWLGNDYLHLLTQRGSVLRVELEDWAGNEAYAEYHFRVGSEAEGYALQVSSYEGTAGDALIEGSVEEGAEYTSHNNMQFSTFDRDADQWEENCAEVYGGGWWYNNCQAANLNGIYYPGGSYDPRNNSPYEIENGVVWVSFRGADYSLRAVRMKIRPLVTQ chain 2: GHRPLDKKREEAPSLRPAPPPISGGGYRARPAKAAATQKKVERKAPDAGGCLHADPDLGVLCPTGCQLQEALLQQERPIRNSVDELNNNVEAVSQTSSSSFQYMYLLKDLWQKRQKQVKDNENVVNEYSSELEKHQLYIDETVNSNIPTNLRVLRSILENLRSKIQKLESDVSAQMEYCRTPCTVSCNIPVVSGKECEEIIRKGGETSEMYLIQPDSSVKPYRVYCDMNTENGGWTVIQNRQDGSVDFGRKWDPYKQGFGNVATNTDGKNYCGLPGEYWLGNDKISQLTRMGPTELLIEMEDWKGDKVKAHYGGFTVQNEANKYQISVNKYRGTAGNALMDGASQLMGENRTMTIHNGMFFSTYDRDNDGWLTSDPRKQCSKEDGGGWWYNRCHAANPNGRYYWGGQYTWDMAKHGTDDGVVWMNWKGSWYSMRKMSMKIRPFFPQQ chain 3: YVATRDNCCILDERFGSYCPTTCGIADFLSTYQTKVDKDLQSLEDILHQVENKTSEVKQLIKAIQLTYNPDESSKPNMIDAATLKSRKMLEEIMKYEASILTHDSSIRYLQEIYNSNNQKIVNLKEKVAQLEAQCQEPCKDTVQIHDITGKDCQDIANKGAKQSGLYFIKPLKANQQFLVYCEIDGSGNGWTVFQKRLDGSVDFKKNWIQYKEGFGHLSPTGTTEFWLGNEKIHLISTQSAIPYALRVELEDWNGRTSTADYAMFKVGPEADKYRLTYAYFAGGDAGDAFDGFDFGDDPSDKFFTSHNGMQFSTWDNDNDKFEGNCAEQDGSGWWMNKCHAGHLNGVYYQGGTYSKASTPNGYDNGIIWATWKTRWYSMKKTTMKIIPFNRLTIGEGQQHHLGGAKQVRPEHPAETEYDSLYPEDDL |  |  |  |  |  | 4 | 9 | 7 | 14
